B1: GS728: dsRNA trigger targeting B. cinerea XM_024691746.1; trigger SEQ ID NO 18, RNA 30, reverse complement 42 (nucleic acid, listed as Botrytis cinerea)
sense: CACAAGAAGCAUGGGGUAUGAAGAGAUAAGUUGUGGCUGGUGAACAACUAAAUCGACAUUUUCCGUCCCCACAGCACCUUUCGAACACUGAAUUCAAUUAAUUAUACACUGUUCCAGUAUCCACUUCCACUUCCACUCCCACAAAACAUACAAUACUACGAUAAUACGAUUUUACGAUAACGUCCAGCCUUGAGGACAACAAGUCAGAUGAAAAUCACGAGAUGGCAUUGUUUUUGAUGUUAGUAAAUGCUAUACCGACGGUAAUCGGCACUGCUGAAGCAUUAGAUGUUCAGAAGAAGGAAGAUUUGGCCCAGAAGCACAAGGCAAAGUUUUUCAUGACGGCGAAUUUUGCUUUGGAUGGAAAGGUUGCUCAUGAAAAAGAAUCACAGGUCGUCCUACGCGAUAACAGGAUGUACUUAAACCACCCAGAUGCGCCGAAAGAAGGACAUCGAUUUUGUGGUUACUAUUUCAUGUAUC
antisense: GAUACAUGAAAUAGUAACCACAAAAUCGAUGUCCUUCUUUCGGCGCAUCUGGGUGGUUUAAGUACAUCCUGUUAUCGCGUAGGACGACCUGUGAUUCUUUUUCAUGAGCAACCUUUCCAUCCAAAGCAAAAUUCGCCGUCAUGAAAAACUUUGCCUUGUGCUUCUGGGCCAAAUCUUCCUUCUUCUGAACAUCUAAUGCUUCAGCAGUGCCGAUUACCGUCGGUAUAGCAUUUACUAACAUCAAAAACAAUGCCAUCUCGUGAUUUUCAUCUGACUUGUUGUCCUCAAGGCUGGACGUUAUCGUAAAAUCGUAUUAUCGUAGUAUUGUAUGUUUUGUGGGAGUGGAAGUGGAAGUGGAUACUGGAACAGUGUAUAAUUAAUUGAAUUCAGUGUUCGAAAGGUGCUGUGGGGACGGAAAAUGUCGAUUUAGUUGUUCACCAGCCACAACUUAUCUCUUCAUACCCCAUGCUUCUUGUG
B2: GS793: dsRNA trigger targeting B. cinerea Bcswd2 (XM_024694665.1); trigger SEQ ID NO 20, RNA 32, reverse complement 44 (nucleic acid, listed as Botrytis cinerea)
sense: CUGCGUCACUAUAUGGUCCUAGACUUUUCAACUCCCUCUUUGAAGCUUACACAACAUCUUGGAAAAGUAUAAAAACAACAACAAGAAACAUGUCGUCAACCCCUAUGGCGAUAGACUCUCCAUUAGGUGCGAAUGGUACUUCCAUGUUGAAAGCAAACGGAGUCUCAUCAGUCCCACAGACUGGCAAACUGACUGAGAUGAUCUCAUUAUACCAUCCAGUCAAGCUUUUCAAACAUCCUCCGACACCUGCAGACAAAGGGCAAACUCCUCCGAGUUACAACUUUAUUCAGUCUAUCAAUUUCAAUGACAAUGGCAGUCAGCUUAUCACGUCAGAAACUGAUAACACUAUGCAAAUAUAUGAUGUUCUCGAAGGAAGACAUUCAAAAAUGAAUAUUAGUGCCAAGUAUGGUUGUAACCAUGCAAUGUUUGGCCAUGCUGAACAUUGUAUAAUCCAUUCUAGUACCAAAAAAGACCACAA
antisense: UUGUGGUCUUUUUUGGUACUAGAAUGGAUUAUACAAUGUUCAGCAUGGCCAAACAUUGCAUGGUUACAACCAUACUUGGCACUAAUAUUCAUUUUUGAAUGUCUUCCUUCGAGAACAUCAUAUAUUUGCAUAGUGUUAUCAGUUUCUGACGUGAUAAGCUGACUGCCAUUGUCAUUGAAAUUGAUAGACUGAAUAAAGUUGUAACUCGGAGGAGUUUGCCCUUUGUCUGCAGGUGUCGGAGGAUGUUUGAAAAGCUUGACUGGAUGGUAUAAUGAGAUCAUCUCAGUCAGUUUGCCAGUCUGUGGGACUGAUGAGACUCCGUUUGCUUUCAACAUGGAAGUACCAUUCGCACCUAAUGGAGAGUCUAUCGCCAUAGGGGUUGACGACAUGUUUCUUGUUGUUGUUUUUAUACUUUUCCAAGAUGUUGUGUAAGCUUCAAAGAGGGAGUUGAAAAGUCUAGGACCAUAUAGUGACGCAG
B3: GS686: dsRNA trigger targeting B. cinerea Bcrrp1 (XM_001550365.2); trigger SEQ ID NO 17, RNA 29, reverse complement 41 (nucleic acid, listed as Botrytis cinerea)
sense: CCCCUCCACCCAAGCACCUUUCUACACCGGAUUCUGGGAAAUCAUGUCCAAAGAAUGGGAACGCAUUGAUGUGCUGCGCAUGGAGAAAUUCCUGCUGCUAGUGAGACGCUAUUUGGCAGCUGGUUUUGAGGUUGUGGUAUCCAGCUCUUCCGCACCUGCGGGAAAGAAAAACAAGACGAAAGCUUCGAAGAAAGUGAUUUCGGAAUCCGGAGAGCAGGUAUUAGAAGUCCUAUCUUCCAUUCCCUGUGGUUCGGGCCCCGAUGCGCAACGCACACCGAAUGGAAUGCGCUUCCACGUAAUCGAUAUCUGGAUCGACGAGCUUGAGAAACUGGGUGUGAUCGACGCAGCGAAGGAGAGUGAAGAGGGCGCUGAGAAAUUAGAGAAAUUACUGGAGCCGUUGAGGAAAUUGGGAAAGGAGAGCAUUAAUAAGACGGUCAGGAAUAAGUGUAAGGAGGC
antisense: GCCUCCUUACACUUAUUCCUGACCGUCUUAUUAAUGCUCUCCUUUCCCAAUUUCCUCAACGGCUCCAGUAAUUUCUCUAAUUUCUCAGCGCCCUCUUCACUCUCCUUCGCUGCGUCGAUCACACCCAGUUUCUCAAGCUCGUCGAUCCAGAUAUCGAUUACGUGGAAGCGCAUUCCAUUCGGUGUGCGUUGCGCAUCGGGGCCCGAACCACAGGGAAUGGAAGAUAGGACUUCUAAUACCUGCUCUCCGGAUUCCGAAAUCACUUUCUUCGAAGCUUUCGUCUUGUUUUUCUUUCCCGCAGGUGCGGAAGAGCUGGAUACCACAACCUCAAAACCAGCUGCCAAAUAGCGUCUCACUAGCAGCAGGAAUUUCUCCAUGCGCAGCACAUCAAUGCGUUCCCAUUCUUUGGACAUGAUUUCCCAGAAUCCGGUGUAGAAAGGUGCUUGGGUGGAGGGG

Assays:
[1] = test system: Botrytis cinerea isolate (B05.10); assay: Detached leaf assay (tomato leaflets, lesion size); format: in vivo; settings: five days post inoculation, vs untreated inoculated control
How it was run: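 Tomato (Brandywine) detached lateral leaflets were sprayed with treatment in 0.03% Silwet L-77 24 h before inoculation. Two 10 μL drops of 1×10^5 conidia/mL in 7% grape juice were applied per leaflet, which was then incubated at 23 °C, ~75% RH, 12/12 light. Lesion diameter was measured at 5 DPI against the untreated inoculated control, ten replicates.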

[2] = test system: Botrytis cinerea B05.10 isolate; assay: Greenhouse whole plant assay (tomato 'Lanai', disease severity); format: in vivo; settings: final rating day (rating #3)
Description: Plant Tissue: Tomato seedlings, variety “Lanai”, were seeded then thinned to one plant per pot in an 18 cell tray. […] Plants were grown at a 23° C./17° C. day/night temperature with 10 hours of light each 24-hour period. The RH was ambient and plants were fertilized two times a day every day except for Sunday when they received only water. Plants were grown using Fafard brand medium (70-80% sphagnum peat moss, perlite, vermiculite, dolomite limestone and watering agent) for the entire experiment.
Fungal culture. A Botrytis cinerea B05.10 isolate was maintained, and spores were harvested as previously described for detached leaf assays, except a grape juice additive was not used for inoculum preparation.
Treatment of plants. Whole tomato plants were treated ˜24 hours before inoculation using the spray booth. A 0.07% Silwet L-77 solution was used as a spreader and added for a 0.07% final volume in water (Silwet L-77 brand Phyto Technology Laboratories, S7777 Lot #14D7777001 F). The spray booth deck was set to 20″ above the plant canopy and a twinjet 8002EVS nozzle with 100 mesh filter placed into the spray mechanism. The spray boom was calibrated before treatment application with specs as follows: 50 GPA rate, 1.25 MPH speed, 6′ spray length, single pass, and at 45 psi to get a catch of 133 mL in 10 seconds (+/−6 mL). Each treatment was replicated ten times for each experimental run.
Inoculation. Plants were inoculated using a mist-o-matic applicator, which is pressurized by manual pumping. The inoculum suspension was poured into the mist-o-matic immediately before inoculation in the GH space. The containers were only filled half-way and inoculum was applied evenly to the surface of all foliage with even coverage.
Incubation. Plants were incubated inside of a 40″ tall humidity chamber supported by PVC pipe and covered in 3M translucent plastic. A humidifier was inside the chamber and set to low and continuous humidity (filled with tap water). The temperature was D:24-20° C./N:20-18° C. with 15 hours of light, of which 9 hours was with supplemental lighting. RH was ambient and watering occurred everyday by sub-irrigation with the bench being flooded for 10 minutes before draining.
Rating. Tomato plants were rated three times during the two-week experiment with rating starting four days post-inoculation and occurring every three to four days after the initial rating date. Plants were rated for the number of lesions and disease severity, which is the percentage of the plant that was symptomatic including necrotic lesions, pathogen sporulation, and chlorosis.
Data analysis. […] Percent disease severity (%DS) was determined by the percent area of the tomato foliage with symptoms including lesions, chlorosis, necrosis, and wilting. Disease severity was rated at three dates (Rating #) over the 12-day test period. Treatments were compared to the untreated, inoculated control and a chemical standard. Statistical analysis was done using SAS JMP version 13.2.1 with treatments compared to the untreated, inoculated control and a chemical standard using Tukey-Kramer and student's T tests.

Botrytis cinerea conidia = assay: In vitro liquid-based assay (fungal biomass, 96-well plates, Cytation 5); format: cell-based; settings: co-incubated with conidia for three days, vs untreated control
How it was run: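 Conidia (5000/mL stock) were co-incubated with dsRNA or control treatments in pH 6.0 minimal medium. Incubation ran 72 h at 23 °C, shaking at 120 rpm under continuous light. Fungal biomass was measured by brightfield imaging (8 slices per well, 2.5× lens) and expressed as average reduction versus control.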

[3] = 8 g ai/ha, two runs, three-week-old 'Lanai' tomato plant
[4] = 25 g ai/ha, two runs, three-week-old 'Lanai' tomato plant

| Molecule | Average % Reduction in Lesion Size ([1]; 30 ppm) | Average % Reduction in Lesion Size ([1]; 50 ppm) | % control [2, 3] | % control [2, 4] | Average % Reduction in Biomass (Botrytis cinerea conidia; 25 ppm dsRNA) | Average % Reduction in Biomass (Botrytis cinerea conidia; 150 ppm dsRNA) | % control ([2]; 25 g ai/ha, three runs, four-week-old 'Lanai' tomato plant) |
| --- | --- | --- | --- | --- | --- | --- | --- |
| B1 | 20.16% | 16.48% | 27% | 37% | 20% | 35% | – |
| B2 | 55.26% | 57.69% | – | – | 13% | 36% | 24% |
| B3 | 39.61% | 33.29% | 31% | 14% | 16% | 37% | – |

From patent US20230189818A1, “RNA-BASED CONTROL OF BOTRYTIS” (priority 2021, published 2023)
